These results are taken from patent US8211422.

This experiment has as its target GA733 antigen (37 kD protein expressed on colorectal carcinoma cells) (UniProt P16422). The experiment in a line: cell-based or functional assay.
Chain of UniProt P16422 (P16422 24-314): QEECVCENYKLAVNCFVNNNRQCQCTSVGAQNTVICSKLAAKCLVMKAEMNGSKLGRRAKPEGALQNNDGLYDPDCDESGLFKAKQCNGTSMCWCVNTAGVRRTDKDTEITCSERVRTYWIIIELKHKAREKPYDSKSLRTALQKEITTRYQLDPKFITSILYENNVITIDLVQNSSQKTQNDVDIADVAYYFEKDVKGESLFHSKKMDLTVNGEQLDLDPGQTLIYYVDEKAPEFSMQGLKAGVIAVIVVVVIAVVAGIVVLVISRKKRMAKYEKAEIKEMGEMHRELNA

On to “chimeric receptor GA733-γ (scFv of MAb GA733 joined to the γ chain of the Fc receptor)”, for which the % Specific Lysis of CY13, effector:target 3.3:1 stood at 10.3%; the % Specific Lysis of CY13, effector:target 10:1 was 22.2%; the % Specific Lysis of CY13, effector:target 30:1 worked out at 38.7%; the % Specific Lysis of CY13, effector:target 90:1 was found to be 52.2%. Moreover, the GM-CSF production by PBL (stimulator CY13) (pg/ml/5 × 10^5 PBL/24 hours) amounted to 1280 and the GM-CSF production by PBL (stimulator GREM) (pg/ml/5 × 10^5 PBL/24 hours) came to 2980.
